Measurements reported in the DeepSol protein solubility set.

test: soluble on expression in E. coli; label from the status in PepcDB or PDB records

| Sequence | soluble on expression in E. coli |
| --- | --- |
| MGSDKIHHHHHHDFEELNTNPFEMTDEMGIRDGVAVGGAVMAMQRAVITVGTQADDTEAINQYQVAYNLSADSWSGFFGQNNNWYSGSNNTTYYLQDNWVAATYTNSYTTLLSSWKKIKQESEKNETPEIFALAQILKISAWHKTLESFGPIPYTHAGEPALVIPFDSEQVAFNAMFADLTAAIEALTVRAEQGATIVADYDAVYAGDTRKWVKYANSLMLRLAMRISYADETTAQKYARQALNHPFGVMTSKSDEAQMSTGAGMVFRNNIDWLANQYNECRMGSSMFSYLLGYQDPRLSAYFEASPSAYAVAAFDGKNYQAVPPGNANQQNTIYTDFSKPNITSNTPTYWMRASEVYFLRAEAALRWGSEFGDAEALYEQGVATSFDENGISSSVDDYLAFGLTPIAHNMRASYYSYNAAAPTTATPAFSGGTEQKLEKIMIQKWIALYPNGHEAWTEWRRTGYPKLNQVQTNRGQGVTREGGIRRMVYPVSFYQSAEDRANYEEALKLLGGLDKDKATTQLWWDCKNKIY | not soluble |
| MSYPWSNKNGEAASSSKTTVAPPLSPPRYEKVLDFSTLDTQRHRYEVRDQANQRAVVSSAKAESSMIDKFCKENTRIQTNPGIDLPDDYGTDAIVANAIGDQRIVNNLKCVHVTTFNAVQQMSIQVIREGRGLVVEAPTGIGKTYAFLIPAIEAALKNRQSNCFEYTKPSPSILIMASTSALVDQLFNRCELILGLQCMDNVEPIRDIKIDKLVANHPFTKGQCDIAFCTIGKLKATIECGDVCLDNLKTIILDEADKMIDNCAFGPDINWILDQLKEENLENLQSCFFSATYNKNANGTIALTVLQMRMLGEDDPWSVIICPRMSGYITQRVVRVGRGRPNDIRSHPWVIKMGIIRKLIDDDLKETGCSKDGPYNETIAIFCETVQRVTQVTMALRQLGYNFKPVCSMITKNQQLVTVNDLEFRKIHGVVCTNILARGIDVSSVKHTIIMEMSADFDTYKHRIGRVGRDGCGGKSTVLVEHHQLQGGPASNVIEQLYNFMKESKEDIPQWMQEWIVARRNNNIDSWA | not soluble |
| SPEAQTEIEESILEEYAIWRKNTPFLYDLVVTKPLEWPSLTCQWLPEKREFPNSDYYLEKIILGTQTDGNAQNYLMLAQVRLPNEKAEVDGSAYNNKENGSYGGFGMGQQGKIDIVQRIKHDGDVNRARYMPQNPQIIATKTVSGEVHIFDISKHPLKPPANNVASPQLRLRSPQKEGFGLCWNPNQEGRIISAGEDRRIFLWDILGGGDKEEYVNPLNVYGGHTDVVGDVSFHAHSQYLFGSVGDDRKIMLWDTRSSDVEHPSQEVEAHKDVINCLAFNPFSEHVLITGSADTTLCLWDLRSLNQPLHVFESHPGEILQALWSPFHETLFASCGKDRQVRIWDLSRIGEEQEPEDAEDGPPELLFVHGGHTSTVQELSWNPNEPFVIASVADDNILQLWSMAQHIYEDTDDESMTTELKEEDLE | soluble |
| MSQIMYNYPAMMAHAGDMAGYAGTLQSLGADIASEQAVLSSAWQGDTGITYQGWQTQWNQALEDLVRAYQSMSGTHESNTMAMLARDGAEAAKWGG | soluble |
| MTNNITPIHEYKKYWAECFGTAPFLPTSRKEMDALGWDSCDIIIVTGDAYVDHPSFGMAIIGRLLEAQGFRVGIIAQPEWQNKNAFMQLGKPNLFFGITAGNMDSMINRYTADKKLRHDDAYTPNNEGGKRPDRATLVYSQRCREAYKEVPIVLGGIEASLRRVAHYDYWSDKVRRSVLFDAKADILLFGNAERALVEVAHRIANGEDISTMTNIRGTAVNLPAAPEGYTVIDSSRIEKPRKEAFVPKNPYEVETQCETKKDEPVAQPITIRPSRHDAATTAVRLPSFEKLRNDRILYAHASRVLHLETNPYSGRALLQSHGDRELWVNQAPIPLTTEEMDFVFGLPYARVPHPMYGKAKIPAYDMIKTS | not soluble |
| MSLSTMLVAEDLSAVGGISLSSALPVLTAMQYDVAALPTSLLSTHTSGYGTPAVVDLSTWLPQVFAHWTRAQLHFDQALIGYVGSVALCQQITTYLEQQTLSLLVVDPVLGDLGQLYQGFDQDYVAAMRQLIQQADVILPNTTEAALLTGAPYQVTPDLEVILPALQAQLKTGAHAVITDVQRADQIGCAWLDEAGHVQYCGARRLPGHYNGTGDTLAAVIAGLLGRGYPLAPTLARANQWLNMAVAETIAQNRTDDRQGEGHHHHHH | not soluble |
| EITPLFFQKELATPVDNLKPYTALQMEGRDIYIREGCSNCHSQMIRPFRAETERYGHYSVAGESVWEHPFLWGSKRTGPDLARVGGRYSDDWHIAHLTDPRSVVPESNMPAYSWLNTDTLDGELTGKKLATFNFLTRNRSHKDENGNAIPLYTQAEIDGAKDAVKGKTEMSALIAYLQSLGH | not soluble |
| KHLPQILCEAMTREAETMAMPDPKLPEEINRTFMQTYADVEQLVPPAKVDRHGSVCIYLPSPASSEEAEANLSWEEQILQDLPRFIIGLQKRGYAPSDIAILVRKTYQAREIARAMLSYQPEPDEEDYPLIPMSDESLSLSGAASIRFLSNLLKFISRPQSDALRQIAYLSYEELRKEKGLAPTEEGNFSAAELAEFANLRRRSLYELAEGLVSFFHSYLPEREMPYLIAWLDLINDFGHERSADLHSFLQWWDETGHAKSRISSAPNSQAVTLMTIHKAKGLGFRVVLIPFLDWNLDDEAAHRHILWCKIDPARSPFNILPVVPIRYKKEMAQTMFATDYFRERADILLDNLNLLYVATTRAKDEMHLWLHPSQKPESLSTVGDLIHLALASLDENKTESDMYCWGSPVISARQKTTDHPSSGLPFTLPKGSLSAVADRLAIRPEGSEFYRRHKPLYHGHVMHRILADIVLAKDIEPALERYVSGGIVTRDEAIELVDRLSVVTSDSRLSRWFDGSGRVLNEQDILLPEGEQRRPDRIILYDDHTDIVDYKFGAVRKVHHAQMENYIRLLVSMGYPSVRGYLWYLPNNEIVGVRSVRGITRSKGEERKEGKGERGIERKAK | not soluble |
| MGSDKIHHHHHHMKDILKELKKKLSEEDFNKFNGRVTRVVGLTVESKGPDAFLGEMCKISLQNGKNALAEVVGFREESVILMPYEDVSGLKMGCEVIRTNKVLEVGVSRKMIGRVFDGLGRPIDGKPFVPEDRYPLINNPPNPLKRRRIKDPLPVGIRSIDGFITIGKGQRIGIFAGSGVGKSTLLGMIARNTTADINVLALIGERGREVREFIERDLGEEGLKRSILVVSTSDQPALARVKSLLTATSIAEFFRDLGYDVLLMVDSLTRWAMAQREVGLAVGEPPTTRGYPPSVFAGLPKILERAGNSDKGSITAIYTVLVEADDFNEPISDTVRSIVDGHIILSRRLAESNHYPAVDVLASVSRLMNDIVTEEHREAANRLRSLMSAYESAKDLIEIGAYKSGTNPLVDKAVEMKDEIDSFLKQGVFEKASFEETLQKLLDLYLRSLD | not soluble |
| GSHMVPISFVFNRFPRMVRDLAKKMNKEVNFIMRGEDTELDRTFVEEIGEPLLHLLRNAIDHGIEPKEERIAKGKPPIGTLILSARHEGNNVVIEVEDDGRGIDKEKIIRKAIEKGLIDESKAATLSDQEILNFLFVPGFSTKEKVSEVSGRGVGMDVVKNVVESLNGSISIESEKDKGTKVTIRLPLTLAIIQALLVKVNNLVYAIPIANIDTILSISKEDIQRVQDRDVIVIRGEVIPVYRLWEVLQIEHKEELEEMEAVIVRVGNRKYGIVVDDLLGQDDIVIKSLGKVFSEVKEFSGAAILGDGSIALIINVSGIV | soluble |
| MQDFLWKSCAIMGTMKLRIEQDDQYKELEIHITYGQKDKLIERILGFLETVDRQLSCYQEGRKYLVNFSDIYYIESVDKKTFVYLADEIYQTDLRLYQLLHDLQHDGFVQISKSCLLNINVLENIRPLFNSRMEATLLNGERVIVNRRYLPDVKEALKGIQ | not soluble |
| AIADPAEVEFLAEKEMVKIIPNFSLDKIYLIGGDLGPFNPGLPVEVPVWLALNLKQRQKCRIVPPEWMDTDKLEDIREQERKLDTFTPIPNPYYMELTKLLLNHAADNIPKADEIRTLVKDIWDTRMAKLRLSADSFISQQEAHAQLDNLTLMEINTTRSFLLDSLNYMYKLRSNLQPGRSKDY | soluble |
| MKPLLDVLMILDAIEKEGSFAAASAKLYKTPSALSYTVHKLESDLNIQLLDRSGHRAKFTRTGKMLLEKGREVLHTVRELEKQAIKLHEGWENELVIGVDDTFPFSLLAPLIEAFYQHHSVTRLKFINGVLGGSWDALTQGRADIIVGAMHEPPSSSEFGFSRLGDLEQVFAVAPHHPLAQEEEPLNRRIIKRYRAIVVGDTAQAGASTASQLLDEQEAITVFDFKTKLELQISGLGCGYLPRYLAQRFLDSGALIEKKVVAQTLFEPVWIGWNEQTAGLASGWWRDEILANSAIAGVYAKSDDGKSAIQRKIIMTSLSFSCHFPPI | not soluble |
| MSLKQAMGYLRQSTTKQQSLAAQKQTIKVLAEKHNIQHITFYSDKQSGRTDKRNGYQQITELIQQGQCDVLCCYRLNRLHRNLKNALKLMKLCQTYHVHILSVRDGYFDMNKAFDRLKLNIFISLAELESDNIGEQVKNGLREKAKQGKLITTHAPFGYHYHNGTFTIDTVKSPTVKAVFNYYLQGYGYKKIAQYLEADNKFINRKPYQVRNIILNPNEGHHHHHH | not soluble |
| MNYLLIDTSNQPLSVAIMKDNEVIAEKTTDIKKNHSVQLMPEIAEILTESKINKTEITDIVVAEGPGSYTGLRIGVTVAKTLAYALNTNLYGVSSLKALASTVKDSTKLLVPIFDARREAVYAGVYQYQDNELITIIDDTYIPIFELIEKLHQLNQPYVFVGFHIEKIKHLLDSDIVEQLPQASSMKQLIQKPENIHSFTPKYHKLSEAERNWLNQQENNLEHHHHHH | not soluble |
| MGSDKIHHHHHHMMLSVSLAALRTFVEVARLRSFKDAAQSLGVTSGAVSQQVKLVENRLDVTLFERSGRNVKLTEQGLRLLGAIHVPFEQIREAVEDFDRRRSARNVVRIVTPIALASHWLVPRMDRFSRRHPDIELHIDTAHAEGVRRQLFDIAIQYGNETAPGVEAKRLPSSKLVVVGSPQLLEGASPIRDPSDCLKFPLLHDHDRLNWPAWFRANGSTHLPAASRKGLSFADESLLVAAAAAAQGLALVRDIHAENLLLHGRLKIAIETSMEPFQSYYLLTPSLVSQRPVVDACKNWILSEMARPVFLDLLSRP | not soluble |
| MGSDKIHHHHHHLAQLYFYYSAMNAGKSTSLLQSSYNYRERGMNTLVLTAAIDDRYGVGKVASRIGIQADATVFGSEDNLMDLIATHHSQQQLHCVLVDESQFLSKTQVRQLTDVVDKLDIPVLCYGLRSDFRGELFIGSQYLLAWADKLVELKTICFCGRKANMVVRRDGAGNPVRDGAQVAIGGNESYESMCRKHFSELVWD | not soluble |
| MGGSHHHHHHGMASALKEAMVQAEEAAAEITRKLEKQEKKRLKKEKKRLAALALASSENSSSTPEECEEMSEKPKKKKKQKPQEVPQENGMEDPSISFSKPKKKKSFSKEELMSSDLEETAGSTSIPKRKKSTPKEETVNDPEEAGHRSGSKKKRKFSKEEPVSSGPEEAVGKSSSKKKKKFHKASQED | not soluble |
| MGKNLLREKKRLIRQKILFLTGENESWMKNPEIVKEVQRLSKQLESDLIADKRPLPSLDPDKLTKEKYQHFLDLGYQVGDIKKALGLGTTTFQNWRKANGIENKINRKQKKEESKLMKFNIHTASLLLPGTFGAEGKECITISKSGLALSGPVVRRLNKPEWIQLYLDESRLALFVIPCKATDEGARSCVNPKSKKKAGYRKSWSGSILEKVAKASKMDIENHRYHVEPESVEGYPTALGFDLTKAVKN | not soluble |
| MLEEELARKIERYFSIEEEALKKIRISPAEGSFLRKIAEDNMQMILSYYSDAKHFYAKGDLINAFAALNYSYGWIDAGVRLGIFDGAGDHRLFTLYE | not soluble |
